Consider nine molecules from patent US20150140120, “STABILIZED APTAMERS TO PLATELET DERIVED GROWTH FACTOR AND THEIR USE AS ONCOLOGY THERAPEUTICS” (ARCHEMIX LLC, published 2015).

The target of data set [1] is T1, PDGF-AA (rat, UniProt P28576 P28576:86-204). The data set can be described thus: filter; N.B., no significant binding. Particulars: chain copies: 2 inferred; label: 5'-32P. As to the method:
(§1) Dot blot binding assays were performed throughout the selection to monitor the protein binding affinity of the pool. Trace ³²P-labeled RNA was combined with PDGF-AA and incubated at room temperature for 30 min in 1× SHMCK plus 0.1 mg/ml tRNA for a final volume of 20 μl. The reaction was added to a dot blot apparatus (Schleicher and Schuell Minifold-1 Dot Blot, Acrylic), assembled (from top to bottom) with nitrocellulose, nylon, and gel blot membranes. RNA that is bound to protein is captured on the nitrocellulose filter, whereas the non-protein bound RNA is captured on the nylon filter.

The target in data set [2] is T2, PDGF-AA short form (human, UniProt P04085-2 P04085-2:87-196). Nature of the data set: filter; N.B., no significant binding. Particulars: tags: Roche Biomedical (short form); chain copies: 2 inferred; label: 5'-32P. As to the method: as §1
For data set [3], the target named is T3, PDGF-BB (human, UniProt P01127 P01127:82-190). The data set can be described thus: filter; all-DNA ARC126 used in the chimera; dot blot. Particulars: tags: PeproTech (ERK assay: R&D Systems); chain copies: 2 inferred. The source says:
(§2) Protein-associated radio-label is captured on the nitrocellulose membrane while the balance of the radio-label is captured on the nylon membrane. The radio-label data is collected on a phosphorimaging plate.

The target of data set [4] is T3, PDGF-BB. The data set can be described thus: filter; dot blot. The settings on record: tags: PeproTech (ERK assay: R&D Systems); chain copies: 2 inferred.
Description: as §2

Another data set concerns the target VEGF (UniProt P15692-4 P15692-4:27-191). Nature of the data set: filter; dot blot. Particulars: chain copies: 2.
Description: as §2

Data set [5] concerns the target T3, PDGF-BB. Nature of the data set: filter; recognises VEGF but not PDGF. The settings on record: tags: PeproTech (ERK assay: R&D Systems); chain copies: 2 inferred.
Data set [6] concerns the target T1, PDGF-AA. The data set can be described thus: filter; 1x SHMCK, 0.1 mg/mL tRNA, RT. Particulars: chain copies: 2 inferred; label: 5'-32P. How it is done: as §1
Data set [7] addresses T2, PDGF-AA short form. The data set can be described thus: filter; 1x SHMCK (Mg, Ca), 0.1 mg/mL tRNA, RT; 2-3 fold lower without tRNA. The settings on record: tags: Roche Biomedical (short form); chain copies: 2 inferred; label: 5'-32P. How it is done:
as §1

Data set [8] addresses T2, PDGF-AA short form. Nature of the data set: filter; 1x SHMCK, 0.1 mg/mL tRNA, RT. The settings on record: tags: Roche Biomedical (short form); chain copies: 2 inferred; label: 5'-32P. As to the method: as §1

T3 sequence (P01127 82-190, one chain of several): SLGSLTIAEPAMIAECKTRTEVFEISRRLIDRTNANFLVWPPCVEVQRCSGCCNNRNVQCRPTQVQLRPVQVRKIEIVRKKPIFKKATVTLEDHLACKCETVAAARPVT
Sequence of VEGF (P15692 other isoform, or with tags, fused parts or gaps): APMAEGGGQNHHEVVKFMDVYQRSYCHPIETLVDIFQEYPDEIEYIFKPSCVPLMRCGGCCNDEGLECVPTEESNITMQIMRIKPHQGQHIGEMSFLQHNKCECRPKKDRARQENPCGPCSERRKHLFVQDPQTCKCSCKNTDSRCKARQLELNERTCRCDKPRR

B1: ARX33P1.E11 (ssRNA)
RNA: GGGAAAAGCGAAUCAUACACAAGAGAGUGGAGGAGGUAUGUAUGGUUUGUGCGUCUGGUGCGGUGCUCCGCCAGAGACCAACCGAGAA
modifications: 2'-F pyrimidines, 2'-OH purines
With B1, the binding result with PDGF-AA [1] and in the data set with PDGF-AA short form [2] was “no binding” in each case.

On to CAGGCTACGCGTAGAGCATCATGATCCTG (ssDNA, 3' inverted dT (SEQ ID NO: 8)) [deoxyARC126], for which, in the data set with PDGF-BB [3], the Kd is about 0.1 nM.

B2: ARX33P1.D1 (ssRNA)
RNA: GGGAAAAGCGAAUCAUACACAAGAUCGCCAGGAGCAAAGUCACGGAGGAGUGGGGGUACGAAUGCUCCGCCAGAGACCAACCGAGAA
modifications: 2'-F pyrimidines, 2'-OH purines
For the molecule B2, the binding result with PDGF-AA [1] and with PDGF-AA short form [2] was “no binding” in each case.

B3: TK.131.012.B (mixed)
mixed: CAGGCTACGUGCAGUUUGAGAAGUCGCGCACGTAGAGCATCAGAAATGATCCTG
modifications: DNA (PDGF part) with 2'-OMe VEGF part (ARC245 lacking first mA-mU pair); 3' inverted dT
With B3, the Kd in the data set with PDGF-BB [4] was about 10 nM; with VEGF, about 5 nM.

B4: TK.131.012.A (mixed)
mixed: CAGGCTACGAUGCAGUUUGAGAAGUCGCGCAUCGTAGAGCATCAGAAATGATCCTG
modifications: DNA (PDGF part) with 2'-OMe VEGF part (ARC245); 3' inverted dT
As for B4, the dissociation constant Kd in the data set with PDGF-BB [4] and in the data set with VEGF was about 10 nM each time.

In the case of AUGCAGUUUGAGAAGUCGCGCAU (XNA, all 2'-OMe; 3' inverted dT) [ARC245], the dissociation constant Kd in the data set with VEGF was about 2 nM. Further, the binding result with PDGF-BB [5] is reported as “no binding”.

B5: ARX33P1.D2 (ssRNA)
RNA: GGGAAAAGCGAAUCAUACACAAGACCGGGAACUCGGAUUCUUCGCAUGUGGAUGCGAUCAGUAUGCUCCGCCAGAGACCAACCGAGAA
modifications: 2'-F pyrimidines, 2'-OH purines
Turning to B5, the Kd in the data set with PDGF-AA [6] came to 51.7 nM; with PDGF-AA short form [7], 104 nM.

B6: ARX33P1.E10 (ssRNA)
RNA: GGGAAAAGCGAAUCAUACACAAGACCGGAAACUCGGAUUCUUCGCAUGUGGAUGCGAUCAGUAUGCUCCGCCAGAGACCAACCGAGAA
modifications: 2'-F pyrimidines, 2'-OH purines
B6: the Kd stood at 47.1 nM in the data set with PDGF-AA [6] and 133 nM in the data set with PDGF-AA short form [8].

B7: ARX33P1.E5 (ssRNA)
RNA: GGGAAAAGCGAAUCAUACACAAGACCGGGAACUCGGAUUCUUCACAUGUGGAUGUGAUCAGUAUGCUCCGCCAGAGACCAACCGAGAA
modifications: 2'-F pyrimidines, 2'-OH purines
Take B7: the Kd with PDGF-AA [6] worked out at 57.4 nM; with PDGF-AA short form [8], 117 nM.
